From article PMC6633393 (Journal of cell science, 2019) come the findings set out here.

This test addresses Histidine-tagged human TEAD4 (amino acids 217–434) (human, UniProt Q15561 217-434). The test is described as follows: native gel or EMSA; TEAD4 incubated with increasing concentrations of VGLL3 peptide before labelled YAP was added; 10 min at room temperature; 10% native gel at 100 V; only labelled YAP is seen. Particulars: both partners purified. In general terms: In EMSA bound probe runs differently from free probe, usually more slowly.

Sequence of Histidine-tagged human TEAD4 (amino acids 217–434) (Q15561 217-434): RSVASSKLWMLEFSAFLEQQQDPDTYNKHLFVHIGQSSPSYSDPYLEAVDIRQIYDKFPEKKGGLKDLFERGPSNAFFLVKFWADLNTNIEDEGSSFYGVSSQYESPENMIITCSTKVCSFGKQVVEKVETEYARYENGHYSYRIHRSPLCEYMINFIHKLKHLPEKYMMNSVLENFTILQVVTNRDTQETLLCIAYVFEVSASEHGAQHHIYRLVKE

With SRCVLFTYFQGDIGSVVDEHFSRALGQ (peptide, UniProt A8MV65 86-112, looked up) [Unlabelled human VGLL3 (amino acids 86–112) peptide], the binding result was “binds”.
